The results in this text go back to patent US20090208489A1 (Takeda / Millennium, published 2009).

For assay [1], the target named is T1, OV064(32-282) expressed on transfected ES-2 ovarian carcinoma cells (human, UniProt Q7Z7D3 32-282).
T1 construct: also called ES-2_OV064; ES2/OV064
T1 sequence: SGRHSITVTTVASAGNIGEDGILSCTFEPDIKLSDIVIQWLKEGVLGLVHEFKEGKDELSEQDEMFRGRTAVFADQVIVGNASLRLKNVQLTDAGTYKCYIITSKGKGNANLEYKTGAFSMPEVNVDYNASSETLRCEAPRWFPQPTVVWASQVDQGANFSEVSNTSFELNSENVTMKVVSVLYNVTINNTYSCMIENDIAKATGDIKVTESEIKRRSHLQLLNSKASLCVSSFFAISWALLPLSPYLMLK
The assay is described as follows: flow cytometry on OV064 expressing cells. On the procedure: Analysis of mAb by flow cytometry. 50,000-100,000 test cells were prepared in 100 ul phosphate buffered saline+1% fetal bovine serum (PBSS). 50 ul of test reagent (either hybridoma supernatants, mouse serum or purified mAb) was added, and incubated 30-45 min on ice, then washed 2-3 times in PBSS. 50 ul of fluorescently labeled secondary antibody (Anti-Mouse IgG or Anti-Human IgG) was then added, and incubated 30-45 minutes on ice and washed. The cells were then resuspended in 300 ul of PBSS and analyzed by flow cytometer (FACSCalibur, Becton Dickinson) to assess amount of cell surface bound antibody.
Each human mAb (mAb sc77, mAb sc189, and mAb sc209) bound purified recombinant OV064-His fusion protein in ELISA analysis.

For assay [2], the target named is T1, OV064(32-282) expressed on transfected …. The assay is described as follows: cell-based or functional assay.
In a further assay the target is T2, OV064 peptide 157-176 (human).
T2 construct: 20-mer synthetic peptide on nitrocellulose; also called OV064 AA 157-176
T2 peptide: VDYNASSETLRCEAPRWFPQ
As to the kind of experiment: peptide array (20-mer on nitrocellulose). On the procedure: (§1) Epitope mapping. A variety of techniques are available to determine epitopes specific for any particular antibody. For example, constructs of OV064 truncations were generated in a pCMV3 vector. Constructs representing amino acids 32-282, 133-282, 167-282 and 183-282 of the OV064 protein sequence were generated as N-terminally FLAG tagged proteins that when transfected into 293 cells, will be expressed on the cell surface. OV064 specific antibodies sc077, sc189, sc209 an 8G5 were tested for binding to these expressed constructs by flow cytometry, as described above. Furthermore, epitopes were analyzed using the Novatope system (Novagen Inc). Briefly, OV064 cDNA was treated with DNAse and fragments representing 15-600 bp were cloned into a bacterial expression vector. Each mAb was tested against 2000 clones representing OV064 fragments and each positive clone was picked and sequenced. The minimal common sequence between each of these clones was designated as the epitope to which each antibody bound. Additionally, a synthetic peptide map was utilized for identifying anti-OV064 epitopes. Briefly, 20 amino acid peptides each overlapping with 15 amino acids were printed on a nitrocellulose filter and incubated with anti-OV064 specific antibodies. Peptide spots that reacted strongly with the OV064 specific antibodies indicated the presence of an OV064 epitope.
(§2) As described above in the methods, various approaches to determine epitope mapping of OV064 specific mAbs were used. […] The other methods confirmed the results depicted in Table 5.

Another assay concerns the target T3, OV064 peptide 162-181 (human).
T3 construct: 20-mer synthetic peptide on nitrocellulose; also called OV064 AA 162-181
T3 peptide: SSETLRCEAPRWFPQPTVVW
As to the kind of experiment: peptide array (20-mer on nitrocellulose). The procedure: as §1, §2

Another assay deals with T4, OV064 peptide 172-191 (human).
T4 construct: 20-mer synthetic peptide on nitrocellulose; also called OV064 AA 172-191
T4 peptide: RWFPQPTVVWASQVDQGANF
As to the kind of experiment: peptide array (20-mer on nitrocellulose). The procedure:
as §1, §2

Another assay addresses T5, OV064 peptide 167-186 (human).
T5 construct: 20-mer synthetic peptide on nitrocellulose; also called OV064 AA 167-186
T5 peptide: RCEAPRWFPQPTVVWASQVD
The assay is described as follows: peptide array (20-mer on nitrocellulose). On the procedure: as §1, §2

For the next assay, the target named is T6, OV064 peptide 237-256 (human).
T6 construct: 20-mer synthetic peptide on nitrocellulose; also called OV064 AA 237-256
T6 peptide: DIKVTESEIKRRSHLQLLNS
The assay is described as follows: peptide array (20-mer on nitrocellulose). On the procedure:
as §1, §2

The next assay concerns the target T7, OV064 peptide 238-257 (human).
T7 construct: 20-mer synthetic peptide on nitrocellulose; also called OV064 AA 238-257
T7 peptide: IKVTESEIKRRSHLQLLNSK
As to the kind of experiment: peptide array (20-mer on nitrocellulose). The procedure:
as §1, §2

The target of the next assay is T8, OV064 peptide 177-196 (human).
T8 construct: 20-mer synthetic peptide on nitrocellulose; also called OV064 AA 177-196
T8 peptide: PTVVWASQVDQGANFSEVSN
As to the kind of experiment: peptide array (20-mer on nitrocellulose). On the procedure:
as §1, §2

B1: human monoclonal antibody mAb sc77 (antibody, human IgG1, kappa, V domains shown)
VH: QVQLVESGGGVVQPGRSLRLSCAASGFTFSSYGMHWVRQAPGKGLEWVAVIWYDGNNKYYADSVKGRFTISRDNSKNTLYLQMNSLRAEDTAVYYCARTSGIAAFDYWGQGTLVTVSS
VL: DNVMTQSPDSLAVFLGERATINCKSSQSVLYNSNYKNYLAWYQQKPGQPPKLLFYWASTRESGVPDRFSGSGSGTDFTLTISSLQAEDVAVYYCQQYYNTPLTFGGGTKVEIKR
notes: Human IgG1 kappa; also called sc077; Ov64sc77
In the case of B1, the “FCM (MFI max)” value in assay [1] worked out at 780 MFI. Also, in assay [2], the “ICA (EC50)” value was 0.123 nM. Moreover, the binding result in the assay with OV064 peptide 157-176, in the assay with OV064 peptide 162-181, with OV064 peptide 172-191 and with OV064 peptide 167-186 was “binds” each time.

B2: human monoclonal antibody mAb sc189 (antibody, human IgG1, kappa, V domains shown)
VH: EVQLVESGGGLVQPGGSLRLSCAASGFSFSSYDMHWVRQATGKGLEWVSGIDIAGDTYYPGSVKGRFTISRENAKNSLYLQMNSLRAGDTAVYYCARGDYDGTFDYWGQGTLVTVSS
VL: DIVMTQTPLSSPVTLGQPASISCRSSQSLVHSDGNTYLSWLQQRPGQPLRLLFYKISNRFSGVPDRFSGSGAGTDFTLIINRVEAEDVGVYYCMHATQFPITFGQGTRLEIKR
notes: Human IgG1 kappa; also called Ov64sc189
On to B2, for which the “FCM (MFI max)” value in [1] turned out to be 820 MFI. In [2], the “ICA (EC50)” value was determined as 0.06 nM. Further, the binding result with OV064 peptide 237-256 and in the assay with OV064 peptide 238-257 was “binds” in each case.

B3: human monoclonal antibody mAb sc209 (antibody, human IgG1, kappa, V domains shown)
VH: GVQLVESGGGLVQPGGSLRLSCAASGFTISRNDMHWVRQATGKGLEWVSAIGTGGDTYYPGSVKGRFTISRENAKNSLYLQMNSLRAGDTAVYYCARGHMTTFGGFIVIGNGMDVWGQGTTVTVSS
VL: not shown
notes: Human IgG1 kappa; also called Ov64sc209
Regarding B3, the “FCM (MFI max)” value in assay [1] turned out to be 700 MFI. In assay [2], the “ICA (EC50)” value is 0.053 nM. Further, the binding result with OV064 peptide 157-176, with OV064 peptide 162-181, in the assay with OV064 peptide 172-191, in the assay with OV064 peptide 167-186 and with OV064 peptide 177-196 was “binds” throughout.
